In patent US20250263462A1 (US Dept. of Health and Human Services, published 2025):

Assays:
Experiment in all cases: cell-based or functional assay
[1] = molecular target: HLA-A11 on COS7/A11 cells expressing the KRAS G12V minigene (23-mer SEQ ID NO: 120) (human, UniProt A*11:01)
[2] = molecular target: HLA-A11 on COS7/A11 cells expressing the WT KRAS minigene (23-mer SEQ ID NO: 118) (human, UniProt A*11:01)
[3] = molecular target: HLA-A11 on COS7/A11 cells expressing the KRAS G12D minigene (23-mer SEQ ID NO: 119) (human, UniProt A*11:01)
[4] = molecular target: T1, KRAS G12D 10-mer peptide … (SEQ ID NO: 2) presented by HLA-A11 on pulsed cells (human, UniProt A*11:01)
[5] = molecular target: KRAS G12D 9-mer peptide KRAS8-16 … (SEQ ID NO: 34) presented by HLA-A11 on pulsed cells (human, UniProt A*11:01)
[6] = molecular target: T2, WT KRAS 10-mer peptide (SEQ ID NO: 30) presented by HLA-A11 on pulsed cells (human, UniProt A*11:01)
[7] = molecular target: KRAS G12V 9-mer peptide … (SEQ ID NO: 35) presented by HLA-A11 on pulsed cells (human, UniProt A*11:01)
[8] = molecular target: T1, KRAS G12D 10-mer peptide … (SEQ ID NO: …); remark: listed apart in the source
[9] = molecular target: T2, WT KRAS 10-mer peptide (SEQ ID NO: 30) …; remark: listed apart in the source
[10] = molecular target: KRAS G12V 10-mer peptide … (SEQ ID NO: 33) presented by HLA-A11 on pulsed cells (human, UniProt A*11:01)

B1: TRAV19*01/TRBV13-1*02 murine anti-KRAS G12V TCR (SEQ ID NOs: 145 and 146) (TCR, V domains shown)
V domain 1: GQQVKQSSPSLTVQEGGILILNCDYENDMFDYFAWYKKYPDNSPTLLISVRSNVDKREDGRFTVFLNKSGKHFSLHITASQPEDTAVYLCAAGDSGGSNYKLTFGKGTLLTVTP
V domain 2: EAAVTQSPRNKVTVTGGNVTLSCRQTNSHNYMYWYRQDTGHGLRLIHYSYGAGNLQIGDVPDGYKATRTTQEDFFLLLELASPSQTSLYFCASASWGGYAEQFFGPGTRLTVLE
For B1, the “IFN-γ, PBL + Cos7/A11 minigene transfectant” value [1] was 18100 pg/mL, the “IFN-γ, PBL + Cos7/A11 minigene transfectant” value [2] was 92 pg/mL and the “IFN-γ, PBL + Cos7/A11 minigene transfectant” value [3] was 81 pg/mL. For the same binder, the “IFN-γ, PBL + Cos7/A11 pulsed at 10^-6 (10^× µM)” value (“IFN-γ … at 10^-6 (10^× µM)” for short) [4] was 61 pg/mL, the “IFN-γ, PBL + Cos7/A11 pulsed at 10^-7 (10^× µM)” value (shortened to “IFN-γ … at 10^-7 (10^× µM)”) [4] was 50 pg/mL and the “IFN-γ, PBL + Cos7/A11 pulsed at 10^-8 (10^× µM)” value (“IFN-γ … at 10^-8 (10^× µM)” below) [4] was 49 pg/mL. The “IFN-γ, PBL + Cos7/A11 pulsed at 10^-9 (10^× µM)” value (from here on “IFN-γ … at 10^-9 (10^× µM)”) [4] was 59 pg/mL, the “IFN-γ, PBL + Cos7/A11 pulsed at 10^-10 (10^× µM)” value (shortened to “IFN-γ … at 10^-10 (10^× µM)”) [4] was 52 pg/mL and the “IFN-γ, PBL + Cos7/A11 pulsed at 10^-11 (10^× µM)” value (“IFN-γ … at 10^-11 (10^× µM)” for short) [4] was 64 pg/mL. The “IFN-γ, PBL + Cos7/A11 pulsed at 10^-12 (10^× µM)” value (“IFN-γ … at 10^-12 (10^× µM)” below) [4] was 62 pg/mL, the “IFN-γ, PBL + Cos7/A11 pulsed at 10^-13 (10^× µM)” value (shortened to “IFN-γ … at 10^-13 (10^× µM)”) [4] was 63 pg/mL and the “IFN-γ … at 10^-6 (10^× µM)” value [5] was 63 pg/mL. The “IFN-γ … at 10^-7 (10^× µM)” value [5] was 57 pg/mL, the “IFN-γ … at 10^-8 (10^× µM)” value [5] was 48 pg/mL and the “IFN-γ … at 10^-9 (10^× µM)” value [5] was 54 pg/mL. For the same binder, the “IFN-γ … at 10^-10 (10^× µM)” value [5] was 62 pg/mL, the “IFN-γ … at 10^-11 (10^× µM)” value [5] was 52 pg/mL and the “IFN-γ … at 10^-12 (10^× µM)” value [5] was 57 pg/mL. The “IFN-γ … at 10^-13 (10^× µM)” value [5] was 70 pg/mL, the “IFN-γ … at 10^-6 (10^× µM)” value [6] was 57 pg/mL and the “IFN-γ … at 10^-7 (10^× µM)” value [6] was 56 pg/mL. The “IFN-γ … at 10^-8 (10^× µM)” value [6] was 57 pg/mL, the “IFN-γ … at 10^-9 (10^× µM)” value [6] was 49 pg/mL and the “IFN-γ … at 10^-10 (10^× µM)” value [6] was 57 pg/mL. For the same binder, the “IFN-γ … at 10^-11 (10^× µM)” value [6] was 65 pg/mL, the “IFN-γ … at 10^-12 (10^× µM)” value [6] was 67 pg/mL and the “IFN-γ … at 10^-13 (10^× µM)” value [6] was 70 pg/mL. The “IFN-γ … at 10^-6 (10^× µM)” value [7] was 112 pg/mL, the “IFN-γ … at 10^-7 (10^× µM)” value [7] was 70 pg/mL and the “IFN-γ … at 10^-8 (10^× µM)” value [7] was 52 pg/mL. For the same binder, the “IFN-γ … at 10^-9 (10^× µM)” value [7] was 55 pg/mL, the “IFN-γ … at 10^-10 (10^× µM)” value [7] was 64 pg/mL and the “IFN-γ … at 10^-11 (10^× µM)” value [7] was 62 pg/mL. For the same binder, the “IFN-γ … at 10^-12 (10^× µM)” value [7] was 66 pg/mL, the “IFN-γ … at 10^-13 (10^× µM)” value [7] was 64 pg/mL and the “IFN-γ, PBL + pulsed Cos7/A11” value [8] was 94 pg/mL. For the same binder, the “IFN-γ, PBL + pulsed Cos7/A11” value [9] was 90 pg/mL.

B2: TRAV19*01 + TRBV4*01 TCR chain pair (TCR, V domains shown)
V domain 1: B1 V domain 1
V domain 2: ETAVFQTPNYHVTQVGNEVSFNCKQTLGHDTMYWYKQDSKKLLKIMFSYNNKQLIVNETVPRRFSPQSSDKAHLNLRIKSVEPEDSAVYLCASSRDWGPAEQFFGPGTRLTVLE
In the case of B2, the “IFN-γ, PBL + Cos7/A11 minigene transfectant” value [1] is reported as 30 pg/mL, the “IFN-γ, PBL + Cos7/A11 minigene transfectant” value [2] is reported as 32 pg/mL and the “IFN-γ, PBL + Cos7/A11 minigene transfectant” value [3] is reported as 27 pg/mL. The “IFN-γ, PBL + pulsed Cos7/A11” value [8] was 30 pg/mL, the “IFN-γ, PBL + pulsed Cos7/A11” value [10] was 27 pg/mL and the “IFN-γ, PBL + pulsed Cos7/A11” value [9] was 30 pg/mL.

B3: TRAV3-3*01 + TRBV13-1*02 TCR chain pair (TCR, V domains shown)
V domain 1: GEQVEQRPPHLSVREGDSAVITCTYTDPNSYYFFWYKQEPGASLQLLMKVFSSTEINEGQGFTVLLNKKDKRLSLNLTAAHPGDSAAYFCAVSGGTNSAGNKLTFGIGTRVLVRP
V domain 2: B1 V domain 2
In the case of B3, the “IFN-γ, PBL + Cos7/A11 minigene transfectant” value [1] is reported as 61 pg/mL, the “IFN-γ, PBL + Cos7/A11 minigene transfectant” value [2] is reported as 51 pg/mL and the “IFN-γ, PBL + Cos7/A11 minigene transfectant” value [3] is reported as 56 pg/mL. For the same binder, the “IFN-γ, PBL + pulsed Cos7/A11” value [8] was 49 pg/mL, the “IFN-γ, PBL + pulsed Cos7/A11” value [10] was 44 pg/mL and the “IFN-γ, PBL + pulsed Cos7/A11” value [9] was 47 pg/mL.
